PMC10603095 (Nature Communications, 2023)
Residue numbers refer to the chain shown, from its start. Names may count otherwise.

B1: DNPH1^E104Q (human 2'-deoxynucleoside 5'-monophosphate N-glycosidase, crystallisation construct aa 19-162, E104Q) (enzyme, UniProt O43598 19-162, looked up)
chain: GRPALYFCGSIRGGREDRTLYERIVSRLRRFGTVLTEHVAAAELGARGEEAAGGDRLIHEQDLEWLQQADVVVAEVTQPSLGVGYQLGRAVAFNKRILCLFRPQSGRVLSAMIRGAADGSRFQVWDYEEGEVEALLDRYFEADP
notes: also called RCL; source: E. coli BL21 Star (DE3), purified (Ni-NTA, TEV cleavage, HisTrap and Resource Q flow-through, size exclusion)
B2: DNPH1^E55Q (human 2'-deoxynucleoside 5'-monophosphate N-glycosidase, crystallisation construct aa 19-162, E55Q) (enzyme, UniProt O43598 19-162, looked up)
chain: B1 chain with E37Q, Q86E
modifications: deoxyribose monophosphate (dRP) covalently fused to E104
notes: 2'-deoxynucleoside 5'-monophosphate N-glycosidase (DNPH1, RCL), human, isoform 1, residues 19-162 (crystallisation construct) with the point mutation E55Q; Co-crystallised with hmdUMP; the crystal holds the trapped glycosyl-enzyme intermediate; also called RCL

Key:
[1] = molecular target: the molecule itself; experiment: crystal structure; DNPH1^E104Q co-crystallised with hmdUMP at 4 °C; space group P2_(1), 1.78 Å; six chains in the asymmetric unit
[2] = molecular target: the molecule itself; experiment: crystal structure; DNPH1^E55Q co-crystallised with hmdUMP; space group P2_(1)2_(1)2_(1), 1.65 Å; one homodimer in the asymmetric unit

Protein | binding result [1] | binding result [2]
B1 | binds | 
B2 |  | binds
